Results reported in article PMC517823.

Assays:
Ffh [1] = target: Ffh (UniProt P0AGD7); test: inhibition assay
Ffh [2] = target: Ffh (UniProt P0AGD7); test: other; GTP; inhibition assay; conditions: domain or fragment
FtsY (Escherichia coli) = FtsY (Escherichia coli) (UniProt P10121); conditions: cited from earlier work
Sequence of FtsY (Escherichia coli) (P10121 2-497): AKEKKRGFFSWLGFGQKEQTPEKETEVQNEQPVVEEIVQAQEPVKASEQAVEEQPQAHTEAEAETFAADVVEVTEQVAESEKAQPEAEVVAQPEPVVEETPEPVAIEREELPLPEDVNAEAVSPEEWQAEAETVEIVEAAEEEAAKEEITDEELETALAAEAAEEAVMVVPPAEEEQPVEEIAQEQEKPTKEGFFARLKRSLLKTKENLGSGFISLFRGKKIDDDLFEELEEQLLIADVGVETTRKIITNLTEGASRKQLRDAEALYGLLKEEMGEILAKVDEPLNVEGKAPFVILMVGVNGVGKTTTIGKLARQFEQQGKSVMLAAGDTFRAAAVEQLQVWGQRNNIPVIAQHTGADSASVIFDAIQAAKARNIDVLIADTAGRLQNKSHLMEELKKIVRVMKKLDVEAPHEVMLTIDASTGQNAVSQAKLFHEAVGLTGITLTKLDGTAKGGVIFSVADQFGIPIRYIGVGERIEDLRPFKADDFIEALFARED

Sequence of Ffh (UniProt P0AGD7) (P0AGD7 whole entry, the tested form may be a part): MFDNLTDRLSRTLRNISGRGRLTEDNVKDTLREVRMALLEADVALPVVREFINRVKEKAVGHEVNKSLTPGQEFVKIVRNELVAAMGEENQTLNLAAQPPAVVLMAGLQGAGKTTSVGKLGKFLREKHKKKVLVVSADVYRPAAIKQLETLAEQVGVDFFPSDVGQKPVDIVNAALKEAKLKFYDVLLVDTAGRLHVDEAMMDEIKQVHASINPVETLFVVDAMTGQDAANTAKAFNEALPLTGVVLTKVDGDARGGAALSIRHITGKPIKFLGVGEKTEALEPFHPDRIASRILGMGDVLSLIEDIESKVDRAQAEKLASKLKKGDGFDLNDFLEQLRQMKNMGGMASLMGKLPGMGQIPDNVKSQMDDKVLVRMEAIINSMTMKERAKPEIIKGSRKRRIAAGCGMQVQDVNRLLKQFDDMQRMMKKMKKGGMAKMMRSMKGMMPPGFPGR
Sequence of Ffh (from UniProt P0AGD7) (P0AGD7 whole entry): as the sequence (P0AGD7 whole entry, the tested form may be a part) above
Sequence of wild-type FtsY(47-497) (from UniProt P10121) G454(253)W (P10121 47-497, change not shown): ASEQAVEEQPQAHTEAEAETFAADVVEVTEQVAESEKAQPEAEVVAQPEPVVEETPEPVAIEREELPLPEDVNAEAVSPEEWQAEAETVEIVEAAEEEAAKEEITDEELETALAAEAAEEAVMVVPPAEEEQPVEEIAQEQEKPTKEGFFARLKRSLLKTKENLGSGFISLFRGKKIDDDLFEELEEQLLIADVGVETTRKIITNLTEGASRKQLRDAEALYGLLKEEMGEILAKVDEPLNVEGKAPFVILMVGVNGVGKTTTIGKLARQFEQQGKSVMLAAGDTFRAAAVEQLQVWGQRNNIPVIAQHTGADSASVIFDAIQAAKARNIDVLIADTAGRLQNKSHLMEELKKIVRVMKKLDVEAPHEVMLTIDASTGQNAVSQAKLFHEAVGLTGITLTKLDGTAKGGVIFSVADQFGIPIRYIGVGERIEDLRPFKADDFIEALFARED
Sequence of wild-type FtsY(47-497) (from UniProt P10121) Q339(144)A (P10121 47-497, change not shown): as above
Sequence of FtsY Arg386(191) mutant (P10121 47-497, change not shown): as above
Sequence of wild-type FtsY(47-497) (from UniProt P10121) D382(187)A (P10121 47-497, change not shown): as above
Sequence of wild-type FtsY(47-497) (from UniProt P10121) K453(252)E (P10121 47-497, change not shown): as above
Sequence of wild-type FtsY(47-497) (from UniProt P10121) K306(111)A (P10121 47-497, change not shown): as above
Sequence of wild-type FtsY(47-497) (from UniProt P10121) T307(112)W (P10121 47-497, change not shown): as above
Sequence of wild-type FtsY(47-497) (from UniProt P10121) K447(246)A (P10121 47-497, change not shown): as above
Sequence of wild-type FtsY(47-497) (from UniProt P10121) D330(135)A (P10121 47-497, change not shown): as above
Sequence of wild-type FtsY(47-497) (from UniProt P10121) D479(278)A (P10121 47-497, change not shown): as above
Sequence of wild-type FtsY(47-497) (from UniProt P10121) K312(117)A (P10121 47-497, change not shown): as above
Sequence of wild-type FtsY(47-497) (from UniProt P10121) R386(191)A (P10121 47-497, change not shown): as above

Row | Substance | Ki (Ffh [1]) | also measured
1 | wild-type FtsY(47-497) (from UniProt P10121) D382(187)A | 27000 nM | 
2 | wild-type FtsY(47-497) (from UniProt P10121) D479(278)A | 2800 nM | 
3 | wild-type FtsY(47-497) (from UniProt P10121) N302(107)W | 140 nM | 
4 | wild-type FtsY(47-497) (from UniProt P10121) K453(252)E | 3100 nM | 
5 | wild-type FtsY(47-497) (from UniProt P10121) R333(138)A | 240 nM | 
6 | FtsY Arg386(191) mutant (from UniProt P10121 47-497) |  | Ki (Ffh [2]): 120 nM
7 | wild-type FtsY(47-497) (from UniProt P10121) A336(141)W | 160 nM | 
8 | wild-type FtsY(47-497) (from UniProt P10121) T307(112)A | 7100 nM | 
9 | Ffh (from UniProt P0AGD7) |  | Kd (FtsY (Escherichia coli)): 16 nM
10 | wild-type FtsY(47-497) (from UniProt P10121) K312(117)A | 2400 nM | 
11 | wild-type FtsY(47-497) (from UniProt P10121) N302(107)A | 110 nM | 
12 | wild-type FtsY(47-497) (from UniProt P10121) D330(135)A | 2400 nM | 
13 | wild-type FtsY(47-497) (from UniProt P10121) K306(111)A | 3500 nM | 
14 | wild-type FtsY(47-497) (from UniProt P10121) G454(253)W | 4200 nM | 
15 | wild-type FtsY(47-497) (from UniProt P10121) R386(191)A | 120 nM | 
16 | wild-type FtsY(47-497) (from UniProt P10121) Q339(144)A | 3900 nM | 
17 | wild-type FtsY(47-497) (from UniProt P10121) T307(112)W | 9900 nM | 
18 | wild-type FtsY(47-497) (from UniProt P10121) K447(246)A | 11000 nM | 
